One block for each sequence: values may come before it.
Legend:
HLA-A*01:01 = test: IEDB peptide-MHC binding, purified MHC/competitive/radioactivity; filed as Kd, often an IC50 or EC50 that approximates it; ≥ and ≤ were set here for values at or beyond the usual limits of such assays
HLA-A*30:01 = test: as above
HLA-A*30:02 = test: as above
HLA-A*32:01 = test: as above
HLA-A*29:02 = test: as above
HLA-A*26:01 [1] = test: as above
HLA-A*26:01 [2] = test: IEDB peptide-MHC binding, purified MHC/competitive/fluorescence; filed as Kd, often an IC50 or EC50 that approximates it; ≥ and ≤ were set here for values at or beyond the usual limits of such assays; details: source organism: Bacillus anthracis str. A0488
HLA-B*40:01 = test: IEDB peptide-MHC binding, purified MHC/competitive/radioactivity; filed as Kd, often an IC50 or EC50 that approximates it; ≥ and ≤ were set here for values at or beyond the usual limits of such assays
HLA-B*45:01 = test: as above
HLA-B*18:01 = test: as above
HLA-B*44:03 = test: as above
HLA-B*40:02 = test: as above
HLA-B*44:02 = test: as above
HLA-A*02:01 = test: as above
HLA-A*68:02 = test: as above
HLA-B*51:01 [3] = test: as above; details: source organism: Dengue virus 4 Dominica/814669/1981
HLA-A*02:06 = test: as above
HLA-B*51:01 [4] = test: IEDB peptide-MHC binding, purified MHC/competitive/fluorescence; filed as Kd, often an IC50 or EC50 that approximates it; ≥ and ≤ were set here for values at or beyond the usual limits of such assays
HLA-A*02:02 = test: IEDB peptide-MHC binding, purified MHC/competitive/radioactivity; filed as Kd, often an IC50 or EC50 that approximates it; ≥ and ≤ were set here for values at or beyond the usual limits of such assays
HLA-A*02:03 = test: as above
[5] = source organism: Mammarenavirus guanaritoense
[6] = source organism: Mammarenavirus lassaense
[7] = source organism: SARS coronavirus Tor2
[8] = source organism: Lymphocytic choriomeningitis virus (strain Armstrong)
[9] = source organism: Mammarenavirus juninense
[10] = source organism: Lassa virus Josiah
[11] = source organism: Dengue virus 4 Dominica/814669/1981
[12] = source organism: Dengue virus 2 Jamaica/1409/1983
[13] = source organism: Trypanosoma cruzi
[14] = source organism: Hepatitis C virus (isolate Th580)

Sequence: AVFQPSTGNY
Kd (HLA-A*01:01; [5]): ≥ 27600 nM
Kd (HLA-A*30:01; [5]): 12400 nM
Kd (HLA-A*30:02; [5]): 21.5 nM
Kd (HLA-A*32:01; [5]): ≥ 69900 nM
Kd (HLA-A*29:02; [5]): 819 nM
Kd (HLA-A*26:01 [1]; [5]): 776 nM

Sequence: TVKSFLNFY
Kd (HLA-A*26:01 [2]): 7.2 nM

Sequence: NENPGGYCL
Kd (HLA-B*40:01; [6]): 4920 nM
Kd (HLA-B*45:01; [6]): 178 nM
Kd (HLA-B*18:01; [6]): 73.1 nM
Kd (HLA-B*44:03; [6]): 259 nM
Kd (HLA-B*40:02; [6]): 278 nM
Kd (HLA-B*44:02; [6]): 152 nM

Sequence: QEIQLLAAVG
Kd (HLA-B*40:01; [7]): 2010 nM
Kd (HLA-B*45:01; [7]): 121 nM
Kd (HLA-B*18:01; [7]): 6880 nM
Kd (HLA-B*44:03; [7]): 440 nM
Kd (HLA-B*40:02; [7]): 18000 nM
Kd (HLA-B*44:02; [7]): 883 nM

Sequence: IEVALRTLLL
Kd (HLA-B*40:01; [8]): 1290 nM
Kd (HLA-B*45:01; [8]): ≥ 70000 nM
Kd (HLA-B*18:01; [8]): 1710 nM
Kd (HLA-B*44:03; [8]): 1830 nM
Kd (HLA-B*40:02; [8]): 24.1 nM
Kd (HLA-B*44:02; [8]): 9310 nM

Sequence: LAGLFIDAGY
Kd (HLA-A*01:01; [9]): 1640 nM
Kd (HLA-A*30:01; [9]): 12500 nM
Kd (HLA-A*30:02; [9]): 171 nM
Kd (HLA-A*32:01; [9]): 14900 nM
Kd (HLA-A*29:02; [9]): 54.3 nM
Kd (HLA-A*26:01 [1]; [9]): ≥ 43600 nM

Sequence: IALSVLAVL
Kd (HLA-A*02:01; [10]): 1920 nM

Sequence: QEAYYRARA
Kd (HLA-B*40:01; [7]): 19900 nM
Kd (HLA-B*45:01; [7]): 15.1 nM
Kd (HLA-B*18:01; [7]): ≥ 50800 nM
Kd (HLA-B*44:03; [7]): 7320 nM
Kd (HLA-B*40:02; [7]): 1930 nM
Kd (HLA-B*44:02; [7]): 6160 nM

Sequence: EDIDSVETL
Kd (HLA-B*40:01; [9]): 1880 nM
Kd (HLA-B*45:01; [9]): ≥ 24300 nM
Kd (HLA-B*18:01; [9]): 14400 nM
Kd (HLA-B*44:03; [9]): ≥ 28300 nM
Kd (HLA-B*40:02; [9]): 1250 nM
Kd (HLA-B*44:02; [9]): 12300 nM

Sequence: SGIFVTNEV
Kd (HLA-A*68:02; source organism: Dengue virus 1 Brazil/97-11/1997): 46.9 nM

Sequence: EELITDVEFL
Kd (HLA-B*40:01; [6]): 3120 nM
Kd (HLA-B*45:01; [6]): 17900 nM
Kd (HLA-B*18:01; [6]): 19000 nM
Kd (HLA-B*44:03; [6]): 6370 nM
Kd (HLA-B*40:02; [6]): 9850 nM
Kd (HLA-B*44:02; [6]): 5160 nM

Sequence: FTVQADMGCV
Kd (HLA-B*51:01 [3]): ≥ 59200 nM
Kd (HLA-A*68:02; [11]): 3.55 nM
Kd (HLA-A*02:06; [11]): 110 nM

Sequence: SVSLVLVGV
Kd (HLA-A*68:02; [12]): 1.05 nM

Sequence: EVKKQRAGV
Kd (HLA-A*68:02; [12]): 61.6 nM
Kd (HLA-A*26:01 [1]; [12]): 9120 nM

Sequence: NANAYSGKY
Kd (HLA-A*01:01; [8]): 515 nM
Kd (HLA-A*30:01; [8]): ≥ 37600 nM
Kd (HLA-A*30:02; [8]): 2.71 nM
Kd (HLA-A*32:01; [8]): ≥ 50000 nM
Kd (HLA-A*29:02; [8]): 1070 nM
Kd (HLA-A*26:01 [1]; [8]): 4310 nM

Sequence: FPSVRYQNI
Kd (HLA-B*51:01 [4]; source organism: Yersinia pestis KIM10+): 1020 nM

Sequence: GITRPTTLV
Kd (HLA-A*02:02; [13]): 13700 nM
Kd (HLA-A*68:02; [13]): 11900 nM
Kd (HLA-A*02:06; [13]): 12200 nM
Kd (HLA-A*02:01; [13]): ≥ 92600 nM
Kd (HLA-A*02:03; [13]): 1150 nM

Sequence: FVDYNFSLV
Kd (HLA-A*02:02; [13]): 0.503 nM
Kd (HLA-A*68:02; [13]): 75.5 nM
Kd (HLA-A*02:06; [13]): 0.655 nM
Kd (HLA-A*02:03; [13]): 4.24 nM

Sequence: EGIYKLSSM
Kd (HLA-A*26:01 [2]): 43.1 nM

Sequence: GEPKMTKAL
Kd (HLA-B*40:01; [6]): 1770 nM
Kd (HLA-B*45:01; [6]): ≥ 68100 nM
Kd (HLA-B*18:01; [6]): ≥ 77500 nM
Kd (HLA-B*44:03; [6]): ≥ 49900 nM
Kd (HLA-B*40:02; [6]): 178 nM
Kd (HLA-B*44:02; [6]): ≥ 20300 nM

Sequence: QESLTTTSTA
Kd (HLA-B*40:01; [7]): 10200 nM
Kd (HLA-B*45:01; [7]): 39.6 nM
Kd (HLA-B*18:01; [7]): ≥ 70500 nM
Kd (HLA-B*44:03; [7]): 682 nM
Kd (HLA-B*40:02; [7]): 146 nM
Kd (HLA-B*44:02; [7]): 7110 nM

Sequence: KETSYTTTI
Kd (HLA-B*40:01; [7]): 20.7 nM
Kd (HLA-B*45:01; [7]): 183 nM
Kd (HLA-B*18:01; [7]): ≥ 77500 nM
Kd (HLA-B*44:03; [7]): 125 nM
Kd (HLA-B*40:02; [7]): 59.6 nM
Kd (HLA-B*44:02; [7]): 90.8 nM

Sequence: VLSDFKTWL
Kd (HLA-A*02:02; [14]): 263 nM
Kd (HLA-A*68:02; [14]): ≥ 57400 nM
Kd (HLA-A*02:06; [14]): ≥ 29500 nM
Kd (HLA-A*02:03; [14]): 290 nM

Sequence: WLWYIKIFI
Kd (HLA-A*02:01; source organism: HIV-1 M:B_MN): 141 nM

Kd (HLA-A*68:02; source organism: Homo sapiens): ≥ 136000 nM
Sequence: FLEQQNKIL

Sequence: FANNKFTLV
Kd (HLA-A*02:02; [13]): 64.1 nM
Kd (HLA-A*68:02; [13]): 75 nM
Kd (HLA-A*02:06; [13]): 3.05 nM
Kd (HLA-A*02:03; [13]): 1.36 nM

Sequence: LTYSQLMTL
Kd (HLA-A*02:02; [10]): 11.1 nM
Kd (HLA-A*68:02; [10]): 103 nM
Kd (HLA-A*02:06; [10]): 57.8 nM
Kd (HLA-A*02:01; [10]): 227 nM
Kd (HLA-A*02:03; [10]): 7.81 nM

Sequence: EPYPPKGPV
Kd (HLA-B*51:01 [4]; source organism: Vibrio vulnificus YJ016): 828 nM

From the Immune Epitope Database (IEDB)
